# Changes are numbered by the printed parent chain. Names may count otherwise.
# T1: EsCas13d, nuclease-dead (Eubacterium siraeum, UniProt B0MS50, R295A;H300A;R849A;H854A)
# T1 sequence: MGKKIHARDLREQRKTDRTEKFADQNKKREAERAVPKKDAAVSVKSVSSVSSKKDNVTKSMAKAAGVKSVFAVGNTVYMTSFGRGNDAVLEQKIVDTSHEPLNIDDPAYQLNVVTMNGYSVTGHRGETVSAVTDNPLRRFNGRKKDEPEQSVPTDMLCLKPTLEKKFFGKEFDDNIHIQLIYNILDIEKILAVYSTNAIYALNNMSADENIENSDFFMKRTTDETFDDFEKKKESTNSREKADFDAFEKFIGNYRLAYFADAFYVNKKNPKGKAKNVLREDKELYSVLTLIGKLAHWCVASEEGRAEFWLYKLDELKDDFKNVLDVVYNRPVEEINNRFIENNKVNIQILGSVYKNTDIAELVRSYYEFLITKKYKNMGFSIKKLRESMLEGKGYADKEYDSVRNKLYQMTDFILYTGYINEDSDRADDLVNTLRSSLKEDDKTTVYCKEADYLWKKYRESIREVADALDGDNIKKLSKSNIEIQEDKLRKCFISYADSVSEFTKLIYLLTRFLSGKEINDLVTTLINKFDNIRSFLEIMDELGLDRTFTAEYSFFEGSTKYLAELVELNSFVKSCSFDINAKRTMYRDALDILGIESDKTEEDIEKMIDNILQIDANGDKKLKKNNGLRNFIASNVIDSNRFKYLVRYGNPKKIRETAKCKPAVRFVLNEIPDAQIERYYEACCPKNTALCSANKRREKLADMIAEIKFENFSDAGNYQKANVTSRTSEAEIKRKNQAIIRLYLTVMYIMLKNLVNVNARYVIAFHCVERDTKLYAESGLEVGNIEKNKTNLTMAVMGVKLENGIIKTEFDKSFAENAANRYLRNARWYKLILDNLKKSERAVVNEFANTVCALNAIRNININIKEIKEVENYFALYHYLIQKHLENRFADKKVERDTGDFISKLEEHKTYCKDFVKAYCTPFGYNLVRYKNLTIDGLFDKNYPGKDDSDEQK
# B1: target 1 insC 3' of 18,insC 3' of 3 (mixed)
# RNA 1: CACCCGUGCAAAAAUGCAGGGGUCUAAAACUGAGCGGAUAACCUCUCUAUGG
# RNA 2: GGGAAUGGAUCCACAUCUACGAAUUCGUACCAUACGAGAGGUUAUCCGCUCCACCGAGAUCGGAAGAGCACACGU
# B2: target 1 insG 3' of 9,insU 3' of 9 (mixed)
# RNA 1: B1 RNA 1
# RNA 2: GGGAAUGGAUCCACAUCUACGAAUUCGUACCAUAGAGAGGUUAGUUCCGCUCACCGAGAUCGGAAGAGCACACGU
# B3: target 1 MT 5'PFS UUA 3'PFS CAA (mixed)
# RNA 1: B1 RNA 1
# RNA 2: GGGAAUGGAUCCACAUCUACGAAUUCUUACCAUAGAGAGGUUAUCCGCUCACAAAGAUCGGAAGAGCACACGU
# B4: target 1 MT 5'PFS AAC 3'PFS AGG (mixed)
# RNA 1: B1 RNA 1
# RNA 2: B3 RNA 2 with U27A, U28A, A29C, C52A, A53G, A54G
# B5: target 1 MT 5'PFS GUU 3'PFS AGU (mixed)
# RNA 1: B1 RNA 1
# RNA 2: B3 RNA 2 with U27G, A29U, C52A, A53G, A54U
# B6: target 1 MT 5'PFS UAA 3'PFS UUA (mixed)
# RNA 1: B1 RNA 1
# RNA 2: B3 RNA 2 with U28A, C52U, A53U
# B7: target 1 MT 5'PFS AAC 3'PFS AGA (mixed)
# RNA 1: B1 RNA 1
# RNA 2: B3 RNA 2 with U27A, U28A, A29C, C52A, A53G
# B8: target 1 MT 5'PFS AAA 3'PFS CGA (mixed)
# RNA 1: B1 RNA 1
# RNA 2: B3 RNA 2 with U27A, U28A, A53G
# B9: target 1 MT 5'PFS UGC 3'PFS UCA (mixed)
# RNA 1: B1 RNA 1
# RNA 2: B3 RNA 2 with U28G, A29C, C52U, A53C
# B10: target 1 MT 5'PFS GUU 3'PFS GGG (mixed)
# RNA 1: B1 RNA 1
# RNA 2: B3 RNA 2 with U27G, A29U, C52G, A53G, A54G
# B11: target 1 MT 5'PFS UGU 3'PFS UAA (mixed)
# RNA 1: B1 RNA 1
# RNA 2: B3 RNA 2 with U28G, A29U, C52U
# B12: target 1 MT 5'PFS GAG 3'PFS UGU (mixed)
# RNA 1: B1 RNA 1
# RNA 2: B3 RNA 2 with U27G, U28A, A29G, C52U, A53G, A54U
# B13: target 1 MT 5'PFS CUG 3'PFS ACA (mixed)
# RNA 1: B1 RNA 1
# RNA 2: B3 RNA 2 with U27C, A29G, C52A, A53C
# B14: target 1 MT 5'PFS CUG 3'PFS ACG (mixed)
# RNA 1: B1 RNA 1
# RNA 2: B3 RNA 2 with U27C, A29G, C52A, A53C, A54G
# B15: target 1 MT 5'PFS CCC 3'PFS UGC (mixed)
# RNA 1: B1 RNA 1
# RNA 2: B3 RNA 2 with U27C, U28C, A29C, C52U, A53G, A54C
# B16: target 1 MT 5'PFS UUA 3'PFS CAG (mixed)
# RNA 1: B1 RNA 1
# RNA 2: B3 RNA 2 with A54G
# B17: target 1 MT 5'PFS UGC 3'PFS UCG (mixed)
# RNA 1: B1 RNA 1
# RNA 2: B3 RNA 2 with U28G, A29C, C52U, A53C, A54G
# B18: target 1 MT 5'PFS GGG 3'PFS GUG (mixed)
# RNA 1: B1 RNA 1
# RNA 2: B3 RNA 2 with U27G, U28G, A29G, C52G, A53U, A54G
# B19: target 1 MT 5'PFS GUU 3'PFS AGC (mixed)
# RNA 1: B1 RNA 1
# RNA 2: B3 RNA 2 with U27G, A29U, C52A, A53G, A54C
# B20: target 1 C2U,U11G (mixed)
# RNA 1: B1 RNA 1
# RNA 2: B3 RNA 2 with U27G, U41G, C50U, A53C, A54G
# B21: target 1 MT 5'PFS GUU 3'PFS AGA (mixed)
# RNA 1: B1 RNA 1
# RNA 2: B3 RNA 2 with U27G, A29U, C52A, A53G
# B22: target 1 MT 5'PFS UGU 3'PFS CAU (mixed)
# RNA 1: B1 RNA 1
# RNA 2: B3 RNA 2 with U28G, A29U, A54U
# B23: target 1 MT 5'PFS GUU 3'PFS AGG (mixed)
# RNA 1: B1 RNA 1
# RNA 2: B3 RNA 2 with U27G, A29U, C52A, A53G, A54G
# B24: target 1 MT 5'PFS UAA 3'PFS UUG (mixed)
# RNA 1: B1 RNA 1
# RNA 2: B3 RNA 2 with U28A, C52U, A53U, A54G
# B25: target 1 insG 3' of 14,insA 3' of 7 (mixed)
# RNA 1: B1 RNA 1
# RNA 2: B2 RNA 2 with U41G, A43U, G44A, U46C, C47A
# B26: target 1 MT 5'PFS GGA 3'PFS AAA (mixed)
# RNA 1: B1 RNA 1
# RNA 2: B3 RNA 2 with U27G, U28G, C52A
# B27: target 1 MT 5'PFS AAA 3'PFS CGU (mixed)
# RNA 1: B1 RNA 1
# RNA 2: B3 RNA 2 with U27A, U28A, A53G, A54U
# B28: target 1 MT 5'PFS GGA 3'PFS AAU (mixed)
# RNA 1: B1 RNA 1
# RNA 2: B3 RNA 2 with U27G, U28G, C52A, A54U
# B29: target 1 MT 5'PFS UAA 3'PFS UUU (mixed)
# RNA 1: B1 RNA 1
# RNA 2: B3 RNA 2 with U28A, C52U, A53U, A54U
# B30: target 1 MT 5'PFS UCA 3'PFS AUC (mixed)
# RNA 1: B1 RNA 1
# RNA 2: B3 RNA 2 with U28C, C52A, A53U, A54C
# B31: target 1 MT 5'PFS GGA 3'PFS AAC (mixed)
# RNA 1: B1 RNA 1
# RNA 2: B3 RNA 2 with U27G, U28G, C52A, A54C
# B32: target 1 MT 5'PFS CUG 3'PFS ACC (mixed)
# RNA 1: B1 RNA 1
# RNA 2: B3 RNA 2 with U27C, A29G, C52A, A53C, A54C
# B33: target 1 MT 5'PFS UAA 3'PFS UUC (mixed)
# RNA 1: B1 RNA 1
# RNA 2: B3 RNA 2 with U28A, C52U, A53U, A54C
# B34: target 1 MT 5'PFS UGC 3'PFS UCC (mixed)
# RNA 1: B1 RNA 1
# RNA 2: B3 RNA 2 with U28G, A29C, C52U, A53C, A54C
# B35: target 1 MT 5'PFS CCG 3'PFS AAA (mixed)
# RNA 1: B1 RNA 1
# RNA 2: B3 RNA 2 with U27C, U28C, A29G, C52A
# B36: target 1 MT 5'PFS GGA 3'PFS AAG (mixed)
# RNA 1: B1 RNA 1
# RNA 2: B3 RNA 2 with U27G, U28G, C52A, A54G
# B37: target 1 MT 5'PFS CUC 3'PFS CAU (mixed)
# RNA 1: B1 RNA 1
# RNA 2: B3 RNA 2 with U27C, A29C, A54U
# B38: target 1 MT 5'PFS CAU 3'PFS UUA (mixed)
# RNA 1: B1 RNA 1
# RNA 2: B3 RNA 2 with U27C, U28A, A29U, C52U, A53U
# B39: target 1 MT 5'PFS UCG 3'PFS AUA (mixed)
# RNA 1: B1 RNA 1
# RNA 2: B3 RNA 2 with U28C, A29G, C52A, A53U
# Target: T1, EsCas13d, nuclease-dead
# Test: crRNA (strand 1, pre-loaded); Mg2+; 40 mM Tris-HCl pH 7.5, 150 mM NaCl, 6 mM MgCl2, 1 mM DTT, 0.1% Tween-20, 0.2 mg/ml BSA; 25 C; 10 min per concentration, then washed
# Settings: tags: His6-TwinStrep-SUMO cleaved; N-terminal SNAP kept (SNAP-Surface 488); label: 3' end held by stalled T7 RNA polymerase
row,Binder,Kd [nM]
1,B1,32 ± 4
2,B2,17.9 ± 0.9
3,B3,49 ± 21
4,B4,59 ± 19
5,B5,21.7 ± 3.85
6,B6,28.5 ± 6.5
7,B7,~27
8,B8,30 ± 14.5
9,B9,11.5 ± 5.3
10,B10,81 ± 29
11,B11,56 ± 17
12,B12,64.5 ± 30.5
13,B13,8.25 ± 2.25
14,B14,6.85 ± 1.6
15,B15,8.55 ± 3.25
16,B16,49.5 ± 20
17,B17,12.1 ± 2.7
18,B18,7.25 ± 0.95
19,B19,15.6 ± 3.35
20,B20,18.4 ± 1

row,Binder,Kd [nM]
1,B21,27.4 ± 5.25
2,B22,~52
3,B23,66.5 ± 11.5
4,B24,16.8 ± 2.95
5,B25,6.2 ± 0.5
6,B26,41 ± 10
7,B27,35 ± 16
8,B28,21 ± 5.5
9,B29,49 ± 14
10,B30,~11
11,B31,24.5 ± 5
12,B32,6.1 ± 1.45
13,B33,22.9 ± 4.25
14,B34,30 ± 10.5
15,B35,27.5 ± 8
16,B36,24.1 ± 3.95
17,B37,~55
18,B38,~70
19,B39,37.5 ± 10.5
